*1 amine or outer side, *2 acyl side, *3 side chain or, on linkers, in order; H or OH if unused. Where no end group is shown, it is not given here. Side-chain parts run from the residue outwards. [ ]: non-standard residue; d: D form. The star is where a group is joined. Undecanoyl(11-OPh(4-COOH)) = O=C(O)c1ccc(OCCCCCCCCCCC(=O)*)cc1; Decanoyl(10-(4-HOOC-PhO)) = O=C(O)c1ccc(OCCCCCCCCCC(=O)*)cc1; γGlu = O=C(O)[C@H](CCC(=O)[*:2])N[*:1]; εLys = N[C@@H](CCCCN[*:1])C(=O)[*:2]; 13‑carboxytridecanoyl = C14 diacid; AEEA = NCCOCCOCC(=O)O; Aib = CC(C)(N)C(=O)O
Experiments:
human GLP-1 receptor [1] = target: T1, human GLP-1 receptor (human, UniProt P43220 24-463); experiment: cell-based or functional assay
human GLP-1 receptor [2] = target: T1, human GLP-1 receptor; experiment: SPA, displacement of 125I-GLP-1(7-36)NH2, BHK membranes, 0.001% HSA
Description: Test compounds, membranes, SPA-particles and [¹²⁵I] ]-GLP-1(7-36)NH₂ were diluted in assay buffer. 50 ul (micro liter) buffer (“low albumin” experiment containing 0.001% HSA) was added to Optiplate, and 25 ul of test compounds were added. 5-10 μg membrane protein/sample was added (50 μl) corresponding to 0.1-0.2 mg protein/ml (to be preferably optimised for each membrane preparation). SPA-particles (Wheatgerm agglutinin SPA beads, Perkin Elmer, #RPNQ0001) were added in an amount of 0.5 mg/well (50 μl). The incubation was started with [¹²⁵I]-GLP-1]-(7-36)NH₂ (final concentration 0.06 nM corresponding to 49.880 DPM, 25 μl). The plates were sealed with PlateSealer and incubated for 120 minutes at 30° C. while shaking. The plates were centrifuged (1500 rpm, 10 min) and counted in Topcounter.
The IC₅₀ value was read from the curve as the concentration which displaces 50% of ¹²⁵I-GLP-1 from the receptor.

human GLP-1 receptor [3] = target: T1, human GLP-1 receptor; experiment: cell-based or functional assay; remark: listed apart in the source

B1: GLP-1 derivative of Example 11 (Chem. 30), N^eps26- and C-terminal-Lys-N^eps-diacylated [Aib^8,His^31,Gln^34]-GLP-1-(7-37)-peptidyl-Lys (peptide)
peptide: HXEGTFTSDVSSYLEGQAAKEFIAHLVQGRGK
modifications: Aib at 8; eps-amino of Lys26 and of the added C-terminal Lys (position 38) each acylated with 10-(4-carboxyphenoxy)decanoyl-gGlu-Ser-Ser-Gly-Ser-Ser-Gly
For B1, the “In vitro potency (AlphaScreen cAMP; membranes) EC50” value (human GLP-1 receptor [1]) was 381 pM and the IC50 (human GLP-1 receptor [2]) was 12800 pM.

For H[Aib]EGTFTSDVSK([AEEA-AEEA-γGlu-13‑carboxytridecanoyl])YLEEQAVREFIAK([AEEA-AEEA-γGlu-13‑carboxytridecanoyl])LVRGRG [Comparative compound of Example 6a: Compound of Example 74, Chem. 93, in WO 2012/062803], the “In vitro potency (CRE-luciferase) low albumin EC50” value (human GLP-1 receptor [3]) was 62 pM, the “In vitro potency (AlphaScreen cAMP; membranes) EC50” value (human GLP-1 receptor [1]) was 62 pM and the IC50 (human GLP-1 receptor [2]) was 800 pM.

For H[Aib]EGTFTSDVSK([Gly-Ser-Ser-Gly-Ser-Ser-γGlu-Undecanoyl(11-OPh(4-COOH))])YLEGQAAK([Gly-Ser-Ser-Gly-Ser-Ser-γGlu-Undecanoyl(11-OPh(4-COOH))])EFIAWLVQGRG, the “In vitro potency (CRE-luciferase) low albumin EC50” value (human GLP-1 receptor [3]) was 5.6 pM and the IC50 (human GLP-1 receptor [2]) was 370 pM.

For HAEGTFTSDVSK([AEEA-AEEA-γGlu-Decanoyl(10-(4-HOOC-PhO))])YLEEQAAK([AEEA-AEEA-γGlu-Decanoyl(10-(4-HOOC-PhO))])EFIAWLVQGRG [Comparative compound of Example 5a: Compound of Example 38, Chem. 57, in WO 2012/062803], the “In vitro potency (CRE-luciferase) low albumin EC50” value (human GLP-1 receptor [3]) was 25 pM, the “In vitro potency (AlphaScreen cAMP; membranes) EC50” value (human GLP-1 receptor [1]) was 224 pM and the IC50 (human GLP-1 receptor [2]) was 5800 pM.

H[Aib]EGTFTSDVSK([AEEA-AEEA-γGlu-Decanoyl(10-(4-HOOC-PhO))])YLEGQAAK([AEEA-AEEA-γGlu-Decanoyl(10-(4-HOOC-PhO))])EFIAWLVQGRG [Comparative compound of Example 9a: Compound of Example 92, Chem. 111, in WO 2012/062803] was tested, and the “In vitro potency (AlphaScreen cAMP; membranes) EC50” value (human GLP-1 receptor [1]) was 1590 pM and the IC50 (human GLP-1 receptor [2]) was 8090 pM.

With H[Aib]EGTFTSDVSK([εLys-Gly-Ser-Ser-Gly-Ser-Ser-Gly-Ser-Ser-Gly-Ser-Ser-γGlu-Undecanoyl(11-OPh(4-COOH))])YLEGQAAK([εLys-Gly-Ser-Ser-Gly-Ser-Ser-Gly-Ser-Ser-Gly-Ser-Ser-γGlu-Undecanoyl(11-OPh(4-COOH))])EFIAWLVQGRG the “In vitro potency (AlphaScreen cAMP; membranes) EC50” value (human GLP-1 receptor [1]) was 350 pM and the IC50 (human GLP-1 receptor [2]) was 2270 pM.

B2: Comparative compound of Example 1a: Compound of Example 2, Chem. 21, in WO 2011/080103 (peptide)
peptide: HXEGTFTSDVSSYLEGQAAKEFIAWLVRGRK
modifications: not fully specified; Aib at 8; eps-amino of Lys26 and Lys37 each acylated with 10-(4-carboxyphenoxy)decanoyl via the gGlu-2xOEG linker (as Example 1, only the linker differs)
In the case of B2, the IC50 (human GLP-1 receptor [2]) is reported as 2270 pM.

B3: GLP-1 derivative of Example 30 (Chem. 49), N^eps26,N^eps37-diacylated [Imp^7,Aib^8,Arg^34,Lys^37]-GLP-1-(7-37)-peptide (peptide)
peptide: XXEGTFTSDVSSYLEGQAAKEFIAWLVRGRK
modifications: Imp (imidazopropionyl, des-amino histidine) at 7; Aib at 8; eps-amino of Lys26 and Lys37 each acylated with 12-(4-carboxyphenoxy)dodecanoyl-gGlu-Ser-Gly-Ser-eps-Lys
In the case of B3, the “In vitro potency (CRE-luciferase) low albumin EC50” value (human GLP-1 receptor [3]) is reported as 9.4 pM and the IC50 (human GLP-1 receptor [2]) is reported as 180 pM.

For H[Aib]EGTFTSDVSK([AEEA-AEEA-γGlu-Decanoyl(10-(4-HOOC-PhO))])YLEEQAAK([AEEA-AEEA-γGlu-Decanoyl(10-(4-HOOC-PhO))])EFIAWLVQGRG [Comparative compound of Example 7a: Compound of Example 2, Chem. 21, in WO 2012/062803], the “In vitro potency (CRE-luciferase) low albumin EC50” value (human GLP-1 receptor [3]) was 17 pM, the “In vitro potency (AlphaScreen cAMP; membranes) EC50” value (human GLP-1 receptor [1]) was 395 pM and the IC50 (human GLP-1 receptor [2]) was 7030 pM.

B4: GLP-1 derivative of Example 25 (Chem. 44), N^eps26,N^eps37-diacylated [Aib^8,Arg^34,Lys^37]-GLP-1-(7-37)-peptide (peptide)
peptide: HXEGTFTSDVSSYLEGQAAKEFIAWLVRGRK
modifications: Aib at 8; eps-amino of Lys26 and Lys37 each acylated with 12-(4-carboxyphenoxy)dodecanoyl-gGlu-Ser-Ser-Gly-Ser-Ser-Gly-eps-Lys
With B4 the “In vitro potency (AlphaScreen cAMP; membranes) EC50” value (human GLP-1 receptor [1]) was 252 pM and the IC50 (human GLP-1 receptor [2]) was 270 pM.

B5: GLP-1 derivative of Example 2 (Chem. 21), N^eps26,N^eps37-diacylated [Aib^8,His^31,Gln^34,Lys^37]-GLP-1-(7-37)-peptide (peptide)
peptide: HXEGTFTSDVSSYLEGQAAKEFIAHLVQGRK
modifications: Aib at 8; eps-amino of Lys26 and Lys37 each acylated with 10-(4-carboxyphenoxy)decanoyl-gGlu-Ser-Ser-Gly-Ser-Ser-Gly
For B5, the “In vitro potency (CRE-luciferase) low albumin EC50” value (human GLP-1 receptor [3]) was 23 pM, the “In vitro potency (AlphaScreen cAMP; membranes) EC50” value (human GLP-1 receptor [1]) was 116 pM and the IC50 (human GLP-1 receptor [2]) was 8990 pM.

B6: Comparative compound of Example 2a: Compound of Example 17, Chem. 36, in WO 2011/080103 (peptide)
peptide: HXEGTFTSDVSSYLEGQAAKEFIAHLVQGRK
modifications: Aib at 8; eps-amino of Lys26 and Lys37 each acylated with 10-(4-carboxyphenoxy)decanoyl via the gGlu-2xOEG linker (as Example 2, only the linker differs)
B6 was tested, and the “In vitro potency (CRE-luciferase) low albumin EC50” value (human GLP-1 receptor [3]) was 132 pM, the “In vitro potency (AlphaScreen cAMP; membranes) EC50” value (human GLP-1 receptor [1]) was 582 pM and the IC50 (human GLP-1 receptor [2]) was 44500 pM.

For H[Aib]EGTFTSDVSK([εLys-Gly-Ser-Ser-Gly-Ser-Ser-γGlu-Undecanoyl(11-OPh(4-COOH))])YLEGQAAK([εLys-Gly-Ser-Ser-Gly-Ser-Ser-γGlu-Undecanoyl(11-OPh(4-COOH))])EFIAWLVQGRG, the “In vitro potency (AlphaScreen cAMP; membranes) EC50” value (human GLP-1 receptor [1]) was 89 pM and the IC50 (human GLP-1 receptor [2]) was 480 pM.
